This is an account of results in the supplement of paper PMC10567573.

This series in a line: protein stability index of a GFP-peptide fusion (GPS, HEK-293T) (PSI 1-6); higher = more stable.
[1] abbreviates: treatment: DMSO, c terminus: a fixed tail appended.
Where [2] appears, read: treatment: MLN4924 1 uM, 8 h, c terminus: a fixed tail appended.

± gives the standard deviation.
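Also: 24-mer peptide tiles fused after GFP, lentivirally expressed, FACS-sorted into six equal bins by GFP/DsRed ratio, decoded by Illumina sequencing, PSI is the read-weighted mean bin number.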

The sequence TGERPHQCIECGKSFNRHCNLIRH [ZSCAN9] registered a protein stability index under setting [1] of 3.13 ± 0.17 and a protein stability index under setting [2] of 3.35 ± 0.38.
The like results for EDGRPSLGSPYGQPPRFPVPHNGS [PDLIM4] were, in that order, 4.8 ± 0.17 and 4.63 ± 0.26.
In the same order, the values of EELANLRASQREYEELRNSERAEV [RSPH3] are 5.21 ± 0.4 and 5.18 ± 0.31.
The like results for VSLVTAELSKDAQASAAPAAPLPE [SLC29A1] were, in that order, 4.44 ± 0.18 and 4.47 ± 0.16.
Regarding MGCLGVAKEDGKADTKKRHTPRGH [SMOC2], the protein stability index amounted to 5.15 ± 0.17 under setting [1] and 5 ± 0.12 under setting [2].
Consider RRRSRKKPSGALGSESYKSSAGSA [EHMT1], for which the protein stability index reads like this: under setting [1], 4.86 ± 0.32; under setting [2], 5.3 ± 0.073.
In the same order, the values of PRAGKEESGVSVSNSQPTNESHSI [SLC29A1] are 5.33 ± 0.25 and 5.26 ± 0.27.
The like results for EPITGWRKTVCHNGVLGLSRLLFF [LPCAT4] were, in that order, 2.57 ± 0.71 and 2.2 ± 0.37.
The like results for IELANIRDEVAFHTAKCEKLQKEK [MTUS2] were, in that order, 4.31 ± 0.3 and 4.46 ± 0.44.
For the sequence PEGNILRDRFKSFQRRNMIEPRER [NOP53], the protein stability index runs as follows: under setting [1], 4.25 ± 0.31; under setting [2], 4.29 ± 0.36.
In the same order, the values of LQSLDDTELRLLGRTHSACDALRT [RSAD1] are 3.64 ± 0.2 and 3.85 ± 0.18.
Take KNDGRIDAQEIMQSLRDLGVKISE [SLC25A25]: the protein stability index amounted to 3.19 ± 0.21 under setting [1] and 3.29 ± 0.27 under setting [2].
In the same order, the values of LCRAQRERLASANLRVLVDCILRD [TEKT4] are 2.08 ± 0.58 and 2.41 ± 0.21.
Regarding LIWSYPAGSLTFPVRPFFYTGHR [TRIM43], the protein stability index worked out at 1.97 ± 0.37 (treatment: DMSO, c terminus: native) and 2.15 ± 0.11 (treatment: MLN4924 1 uM, 8 h, c terminus: native).
Regarding ASPRRLSNVSSSGSINLLESPQLA [MAP2], the protein stability index is 4.2 ± 0.2 under setting [1] and 4.12 ± 0.15 under setting [2].
With IDKGDIPDLTQAPSSLMETLEQHL [SNAP91], the protein stability index came to 4.11 ± 0.22 under setting [1] and 4.08 ± 0.33 under setting [2].
Regarding RDEVAFHTAKCEKLQKEKEELERR [MTUS2], the protein stability index came to 5.61 ± 0.17 under setting [1] and 5.44 ± 0.33 under setting [2].
On to MSHHPSGLRAGFSSTSYRRTFGPP [PRPH], for which the protein stability index reads like this: under setting [1], 2.92 ± 0.23; under setting [2], 2.94 ± 0.1.
The like results for IRTSERVTLIVDNTRFVVDPSIFT [BTBD10] were, in that order, 2.35 ± 0.41 and 2.36 ± 0.45.
For PHYELCTLRGTGATADFADVADDF [NETO1], the protein stability index amounted to 4.69 ± 0.1 under setting [1] and 4.59 ± 0.25 under setting [2].
The like results for PGGLTLEEHSLEQVQSMVVGEVLK [SPDEF] were, in that order, 3.34 ± 0.28 and 3.53 ± 0.38.
The like results for KMLSKAVDALKSDKKVRTIIIRSE [AUH] were, in that order, 1.81 ± 0.26 and 2 ± 0.6.
The like results for VPIPTVNQYLYFLFAPTLIYRDSY [SOAT1] were, in that order, 3.32 ± 0.3 and 3.24 ± 0.24.
Take VNVGTTALWKHLKSMHREELEKSG [ZBED2]: the protein stability index under setting [1] stood at 3.65 ± 0.24 and the protein stability index under setting [2] amounted to 3.48 ± 0.23.
In the same order, the values of KEGPMIHSGSVVGAGLPQFQSISL [CLCN6] are 2.91 ± 0.12 and 2.86 ± 0.35.
In the same order, the values of PVPPPSYFATFYSCTPRMNRRMVG [FAM189A2] are 2.43 ± 0.28 and 2.43 ± 0.33.
The like results for SQESALGNTVPAVEPGTPPLDILA [DNAAF3] were, in that order, 5.17 ± 0.15 and 5.14 ± 0.12.
As for LYLRVELSDVQNPAISITENVLHF [HACD3], the protein stability index was determined as 2.82 ± 0.57 under setting [1] and 2.88 ± 0.64 under setting [2].
The like results for EEPSNKRVRPLARVTSLANLISPV [NET1] were, in that order, 3.43 ± 0.47 and 3.44 ± 0.19.
Turning to SQVMGSGRGSLSSGGQTSWDSGCL [PLEKHN1], the protein stability index reads like this: under setting [1], 4.02 ± 0.14; under setting [2], 3.98 ± 0.13.
In the same order, the values of GLVLLKHALGSPEKVKACQGQYET [TBC1D10A] are 2.74 ± 0.33 and 2.94 ± 0.047.
In the same order, the values of GKEPLDPDPSHSPSDKVGRADAHL [TOR1AIP2] are 5.07 ± 0.17 and 5.32 ± 0.057.
In the same order, the values of GRVEVLKNGEWGTVCDDKWDLVSA [LOXL2] are 4.2 ± 0.32 and 3.56 ± 0.64.
For the sequence TLHPISSEELLSLKYENDYPSVIL [ETS1], the protein stability index under setting [1] was determined as 2.55 ± 0.17 and the protein stability index under setting [2] was 2.76 ± 0.23.
Take FKHTLSISRALLSDVVPEKERPLV [MFSD9]: the protein stability index stood at 3.04 ± 0.12 under setting [1] and 3.24 ± 0.21 under setting [2].
Turning to SLKAKVSDNMSHLMVDFAQERQML [FSD1], the protein stability index was 3.33 ± 0.22 under setting [1] and 3.31 ± 0.31 under setting [2].
As to SPRGPAPGEEKFENLEGVPSVCSE [ZNF263], the protein stability index reads like this: under setting [1], 5.41 ± 0.39; under setting [2], 5.44 ± 0.29.
In the case of WKDIIHNPQALSPQFTGILQLLQS [INTS3], the protein stability index was found to be 2.11 ± 0.34 under setting [1] and 2.14 ± 0.23 under setting [2].
Consider ELFQLQTYSLPPFLKAVLRQERVS [CDS1], for which the protein stability index is, setting by setting: under setting [1], 1.99 ± 0.28; under setting [2], 1.97 ± 0.37.
In the case of DNWKSQVEPETRAVIRWMHSFNFV [CPN1], the protein stability index runs as follows: under setting [1], 2.26 ± 0.52; under setting [2], 2.23 ± 0.14.
The like results for DETLYQEFNGLKKMNPKLKTLLAI [CHIT1] were, in that order, 2.3 ± 0.17 and 2.52 ± 0.47.
The like results for KSVQHVVLQALFYLLDRAVDSFET [PTPN9] were, in that order, 3.21 ± 0.38 and 2.58 ± 0.41.
The like results for PLCNFNVIESFTELSRIVLMRHGM [RAB40C] were, in that order, 2.94 ± 0.45 and 2.73 ± 0.41.
In the case of GVTGWCTGFIFQKVGKLAATAVGG [FUNDC2], the protein stability index under setting [1] came to 2.17 ± 0.048 and the protein stability index under setting [2] amounted to 2.48 ± 0.74.
The like results for LSIINFFERLCLTWMFFFMMCVAE [PHTF1] were, in that order, 3.41 ± 1.2 and 2.81 ± 0.2.
In the same order, the values of QTPILEGRSGPGCAVLDDSIYLVG [KLHL14] are 2.7 ± 0.23 and 2.63 ± 0.28.
As for DYGRKAEELLWRKVYYEVIQLIKT [SMG5], under setting [1], the protein stability index worked out at 2.71 ± 0.57.
For LSLEEELSRVKAAALSERGQAEEE [LRRC45], the protein stability index under setting [1] was 5.45 ± 0.2 and the protein stability index under setting [2] came to 5.37 ± 0.16.
With FFRMFDRNTKRDVTLEASRENSKP [PPP2R2B], the protein stability index runs as follows: under setting [1], 3.45 ± 0.14; under setting [2], 3.82 ± 0.23.
The like results for GDDGIVVVWNAQTGEKLLELNGHT [WDR41] were, in that order, 3.39 ± 0.11 and 3.3 ± 0.35.
With TCTDRSGISTGHWSGEVKDKNVQV [FUT8], the protein stability index is, setting by setting: under setting [1], 4.51 ± 0.21; under setting [2], 4.49 ± 0.16.
In the same order, the values of NLMSLLMAVRPSLPESGLLSVLQI [FANCE] are 3.09 ± 0.51 and 2.78 ± 0.55.
The like results for EKSQLIMQAEAEAASVRMRGEAEA [FLOT1] were, in that order, 5.04 ± 0.12 and 4.7 ± 0.26.
In the same order, the values of DEAGGGAEGDSWEEEGFGSSSPVK [WEE1] are 5.3 ± 0.068 and 5.35 ± 0.26.
As for KTTIPEEEEEEEEAAGVVVEEELF [LMNB1], the protein stability index by setting is: under setting [1], 5.55 ± 0.29; under setting [2], 5.62 ± 0.2.
The like results for ALLPSLSHCSQLTTLSFYGNSISI [PRAME] were, in that order, 3.14 ± 0.66 and 3.14 ± 0.35.
The like results for VFSYFLATDMISIFEPPVRNSGII [EFHC1] were, in that order, 3.65 ± 0.91 and 3.14 ± 0.67.
The like results for GATVRSFSINSRLASSLGNLNAAT [CDC14A] were, in that order, 2.98 ± 0.1 and 2.92 ± 0.21.
As to LLAEREQEEAIAQFPYVEFTGRDS [TMEM106C], the protein stability index under setting [1] stood at 4.6 ± 0.27 and the protein stability index under setting [2] turned out to be 4.72 ± 0.13.
In the same order, the values of SPPKSPRTTVHDKSAHQTHSSWTP [DNAJC4] are 4.36 ± 0.15 and 4.41 ± 0.2.
For EPEEPSEIPERRDSGVGASLTRSN [DLC1], the protein stability index runs as follows: under setting [1], 5.51 ± 0.31; under setting [2], 5.46 ± 0.33.
The like results for APSKKAAKDPGKGELPNHPKPAGG [FBF1] were, in that order, 5.1 ± 0.43 and 5.53 ± 0.24.
Take AQDDDRLREERKKAKKNKDKYVGV [CLINT1]: the protein stability index is, setting by setting: under setting [1], 5.27 ± 0.17; under setting [2], 5.48 ± 0.38.
In the same order, the values of DLAKTGCVDLTITNLLEGAVAFMP [AUP1] are 2.21 ± 0.11 and 2.05 ± 0.32.
As to PRIVEMKKGSNGYGFYLRAGSEQK [PDZK1], the protein stability index came to 3.53 ± 0.36 under setting [1] and 3.65 ± 0.54 under setting [2].
The like results for REIEELLAEAKYYLVQGLVEECQA [KCTD10] were, in that order, 2.02 ± 0.34 and 2.16 ± 0.25.
The like results for EKSTVVEGGEVRFNGKGKKIRKPR [DLX1] were, in that order, 4.77 ± 0.28 and 5.06 ± 0.33.
For the sequence GGLMARPEYREWNPELIKPKKLLN [FAM107A], the protein stability index worked out at 3.68 ± 0.36 under setting [1] and 4.495 ± 0.034 under setting [2].
Consider VKDDDRLTFHRHPVAQSTDGIRGK [SPSB4], for which the protein stability index turned out to be 4.89 ± 0.25 under setting [1] and 4.83 ± 0.23 under setting [2].
Regarding GIETLESVPIIGGFWETIFGNRIK [PHTF1], the protein stability index by setting is: under setting [1], 2.67 ± 0.41; under setting [2], 2.81 ± 0.18.
The like results for IEIATYRKLLEGEESRISVPVHSF [PRPH] were, in that order, 2.47 ± 0.26 and 2.47 ± 0.21.
With EHLDNLRLNLTNTKQNFFSQTPIL [INTS3], the protein stability index was 2.35 ± 0.28 under setting [1] and 2.48 ± 0.32 under setting [2].
